In article PMC5736207:
Changes are numbered by the printed parent chain. In names and notes the source's numbering stands.

B1: PMM1 (phosphomannomutase1) (Homo sapiens; E219K/M186Q/N218D) (protein)
chain: AVTAQAARRKERVLCLFDVDGTLTPARQKIDPEVAAFLQKLRSRVQIGVVGGSDYCKIAEQLGDGDEVIEKFDYVFAENGTVQYKHGRLLSKQTIQNHLGEELLQDLINFCLSYMALLRLPKKRGTFIEFRNGMLNISPIGRSCTLEERIEFSELDKKEKIREKFVEALKTEFAGKGLRFSRGGQISFDVFPEGWDKRYCLDSLDQDSFDTIHFFGDKTSPGGNDFEIFADPRTVGHSVVSPQDTVQRCREIFFPETAHEA
notes: recombinant, E. coli BL21(DE3), purified as in earlier work (DEAE, butyl Sepharose); dimer; no tag mentioned
B2: PMM1 (phosphomannomutase1) (Homo sapiens) (protein)
chain: B1 chain with Q185M, D217N, K218E
notes: as for B1
B3: PMM2 (phosphomannomutase2) (Homo sapiens) (protein)
chain: AAPGPALCLFDVDGTLTAPRQKITKEMDDFLQKLRQKIKIGVVGGSDFEKVQEQLGNDVVEKYDYVFPENGLVAYKDGKLLCRQNIQSHLGEALIQDLINYCLSYIAKIKLPKKRGTFIEFRNGMLNVSPIGRSCSQEERIEFYELDKKENIRQKFVADLRKEFAGKGLTFSIGGQISFDVFPDGWDKRYCLRHVENDGYKTIYFFGDKTMPGGNDHEIFTDPRTMGYSVTAPEDTRRICELLFS
notes: recombinant, E. coli BL21(DE3), purified as in earlier work; no tag mentioned

Columns and labels:
[1] = substrate: O=P(O)(O)O[C@H]1O[C@H](CO)[C@@H](O)[C@H](O)[C@@H]1O; assay: purified protein; format: biochemical, Homo sapiens; details: pH 7.5, 32°C
[2] = substrate: O=P(O)(O)O[C@H]1O[C@H](CO)[C@@H](O)[C@H](O)[C@H]1O; assay: purified protein; format: biochemical, Homo sapiens; details: 27 μM Glc-1,6-P2, MgCl2 5 mM, pH 7.5, 32°C

| Protein | Km ([1]; 10 μM Man-1,6-P2, MgCl2 5 mM) | Km [2] | Km ([1]; 3 μM Man-1,6-P2, MgCl2 5 mM) |
| --- | --- | --- | --- |
| B1 | 1.6 ± 0.4 µM | 3.5 ± 1.3 µM | – |
| B2 | 6.5 ± 1.3 µM | 7.3 ± 1.7 µM | – |
| B3 | – | – | 23.7 ± 4.5 µM |
